US10464978B2, “Peptides and combination of peptides for use in immunotherapy against ovarian cancer and other cancers” (immatics biotechnologies GmbH, priority 2015, dated 2019)

Biological target: HLA-A*02:01 (Homo sapiens, UniProt P04439, D140Y/D185E/D98H/E176V/E277Q/G131W/G231S/I119V/I121R/I166T/I218V/L300P/L318F/N151K/N90K/P208A/P217A/Q86G/Q94H/R138H/R169H/T345S)
Test: MHC binding assay: UV-ligand exchange with beta2m ELISA (peptide exchange yield)
Conditions: binding to HLA-A*02:01
Text: Candidate peptides for T cell based therapies according to the present invention were further tested for their MHC binding capacity (affinity). The individual peptide-MHC complexes were produced by UV-ligand exchange, where a UV-sensitive peptide is cleaved upon UV-irradiation, and exchanged with the peptide of interest as analyzed. Only peptide candidates that can effectively bind and stabilize the peptide-receptive MHC molecules prevent dissociation of the MHC complexes. To determine the yield of the exchange reaction, an ELISA was performed based on the detection of the light chain ([…]) of stabilized MHC complexes. The assay was performed as generally described in Rodenko et al. (Rodenko et al., 2006).
96 well MAXISorp plates (NUNC) were coated over night with 2 ug/ml streptavidin in PBS at room temperature, washed 4× and blocked for 1 h at 37° C. in 2% BSA containing blocking buffer. […] Peptide-MHC monomers of the UV-exchange reaction were diluted 100 fold in blocking buffer. Samples were incubated for 1h at 37° C., washed four times, incubated with 2 ug/ml HRP conjugated anti-β2m for 1h at 37° C., washed again and detected with TMB solution that is stopped with […]. Absorption was measured at 450 nm. Candidate peptides that show a high exchange yield (preferably higher than 50%, most preferred higher than 75%) are generally preferred for a generation and production of antibodies or fragments thereof, and/or T cell receptors or fragments thereof, as they show sufficient avidity to the MHC molecules and prevent dissociation of the MHC complexes.

Substance	Peptide exchange (MHC class I binding score, peptide exchange yield)
55 (SLLDLETLSL; listed as Homo sapiens) [compound 55]	“++++” (≥75% = ++++)
56 (KLYEGIPVLL; listed as Homo sapiens) [compound 56]	“++++” (≥75% = ++++)
57 (TLAELQPPVQL; listed as Homo sapiens) [compound 57]	“+++” (≥50 = +++)
59 (IMEDIILTL; listed as Homo sapiens) [compound 59]	“+++” (≥50 = +++)
60 (SLTIDGIYYV; listed as Homo sapiens) [compound 60]	“++++” (≥75% = ++++)
62 (VLLDVSAGQLLM; listed as Homo sapiens) [compound 62]	“++++” (≥75% = ++++)
67 (TLLAEALVTV; listed as Homo sapiens) [compound 67]	“+++” (≥50 = +++)
69 (FQLDPSSGVLVTV; listed as Homo sapiens) [compound 69]	“+++” (≥50 = +++)
72 (SLLELDGINL; listed as Homo sapiens) [compound 72]	“+++” (≥50 = +++)
74 (ALLDPEVLSIFV; listed as Homo sapiens) [compound 74]	“+++” (≥50 = +++)
76 (ILIDSIYKV; listed as Homo sapiens) [compound 76]	“+++” (≥50 = +++)
77 (ILVEADGAWVV; listed as Homo sapiens) [compound 77]	“++++” (≥75% = ++++)
78 (SLFSSLEPQIQPV; listed as Homo sapiens) [compound 78]	“+++” (≥50 = +++)
79 (SLFIGEKAVLL; listed as Homo sapiens) [compound 79]	“+++” (≥50 = +++)
83 (ILAPTVMMI; listed as Homo sapiens) [compound 83]	“+++” (≥50 = +++)
84 (VTFGEKLLGV; listed as Homo sapiens) [compound 84]	“++” (≥20% = ++)
85 (KMSELRVTL; listed as Homo sapiens) [compound 85]	“+++” (≥50 = +++)
86 (NLIGKIENV; listed as Homo sapiens) [compound 86]	“+++” (≥50 = +++)
87 (ALPEAPAPLLPHIT; listed as Homo sapiens) [compound 87]	“++” (≥20% = ++)
88 (FLLVGDLMAV; listed as Homo sapiens) [compound 88]	“+++” (≥50 = +++)
91 (IMQDFPAEIFL; listed as Homo sapiens) [compound 91]	“++++” (≥75% = ++++)
92 (YLIPFTGIVGL; listed as Homo sapiens) [compound 92]	“++” (≥20% = ++)
94 (YLIDIKTIAI; listed as Homo sapiens) [compound 94]	“++” (≥20% = ++)
98 (LIIDQADIYL; listed as Homo sapiens) [compound 98]	“+++” (≥50 = +++)
99 (ALVSKGLATV; listed as Homo sapiens) [compound 99]	“++” (≥20% = ++)
100 (YLLSTNAQL; listed as Homo sapiens) [compound 100]	“++++” (≥75% = ++++)
102 (YLFESEGLVL; listed as Homo sapiens) [compound 102]	“+++” (≥50 = +++)
103 (TLAEEVVAL; listed as Homo sapiens) [compound 103]	“+++” (≥50 = +++)

Continued, values first:

Peptide exchange (MHC class I binding score, peptide exchange yield)	Substance
“++++” (≥75% = ++++)	53 (KMIETDILQKV; listed as Homo sapiens) [compound 53]
“+++” (≥50 = +++)	54 (SLLEQGKEPWMV; listed as Homo sapiens) [compound 54]
“++++” (≥75% = ++++)	61 (FLQGYQLHL; listed as Homo sapiens) [compound 61]
“++” (≥20% = ++)	63 (YLLPSGGSVTL; listed as Homo sapiens) [compound 63]
“++” (≥20% = ++)	64 (YAAPGGLIGV; listed as Homo sapiens) [compound 64]
“+++” (≥50 = +++)	66 (FLDENIGGVAV; listed as Homo sapiens) [compound 66]
“++++” (≥75% = ++++)	68 (SLMELPRGLFL; listed as Homo sapiens) [compound 68]
“+++” (≥50 = +++)	70 (GLLDYPVGV; listed as Homo sapiens) [compound 70]
“+++” (≥50 = +++)	71 (GILARIASV; listed as Homo sapiens) [compound 71]
“+++” (≥50 = +++)	73 (NIFDLQIYV; listed as Homo sapiens) [compound 73]
“+++” (≥50 = +++)	75 (GLLEVMVNL; listed as Homo sapiens) [compound 75]
“++” (≥20% = ++)	80 (FLYDNLVESL; listed as Homo sapiens) [compound 80]
“++” (≥20% = ++)	81 (FLFSQLQYL; listed as Homo sapiens) [compound 81]
“+++” (≥50 = +++)	82 (FLSSVTYNL; listed as Homo sapiens) [compound 82]
“++++” (≥75% = ++++)	89 (YILPTETIYV; listed as Homo sapiens) [compound 89]
“+++” (≥50 = +++)	90 (TLLQIIETV; listed as Homo sapiens) [compound 90]
“++” (≥20% = ++)	93 (LLQAIKLYL; listed as Homo sapiens) [compound 93]
“+++” (≥50 = +++)	95 (SVIPQIQKV; listed as Homo sapiens) [compound 95]
“+++” (≥50 = +++)	96 (YIFTDNPAAV; listed as Homo sapiens) [compound 96]
“+++” (≥50 = +++)	97 (SLINGSFLV; listed as Homo sapiens) [compound 97]
“+++” (≥50 = +++)	101 (ILVGGGALATV; listed as Homo sapiens) [compound 101]
“++++” (≥75% = ++++)	104 (STMEQNFLL; listed as Homo sapiens) [compound 104]
